Data on three substances can be found in article PMC4393111.

Assay [1] addresses GFP-Dzip1 (full-length mouse Dzip1) (mouse) (UniProt Q8BMD2). Kind of assay: co-IP; both partners co-expressed with tags in HEK 293T cells (some in G0 phase; some treated with the GSK3 inhibitors BIO or CHIR99021, the CK1 inhibitor D4476 or the CK2 inhibitor CX4945); IP of the GFP-, CFP/YFP-tagged partner; IP buffer 0.1% NP-40, 50 mM HEPES pH 7.00, 125 mM NaCl, 4°C.
For assay [2], the target named is GFP-Rab8^T22N (UniProt P61006). Described as above.
Assay [3] addresses CFP-RBD-YFP (Rab8-binding domain of Rabin8 between CFP and YFP) (human).
Assay [4] shares this target. This is another data set of the same source.

Chain of UniProt P61006 (P61006 whole entry T22N, the tested form may be a part): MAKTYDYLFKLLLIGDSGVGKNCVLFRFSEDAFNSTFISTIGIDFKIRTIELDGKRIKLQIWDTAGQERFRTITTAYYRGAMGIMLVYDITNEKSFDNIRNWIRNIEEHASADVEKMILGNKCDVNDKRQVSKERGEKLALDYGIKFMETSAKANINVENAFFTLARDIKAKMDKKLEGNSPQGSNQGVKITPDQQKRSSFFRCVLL

Consider “Flag-Rab8^T22N (from UniProt P61006 1-207) (natural protein)”, for which the fold co-immunoprecipitated against Rab8^Q67L in assay [1] came out at 3.5 fold.

For the substance “Myc-Dzip1 (from UniProt Q8BMD2 1-852) (natural protein)”, the fold co-immunoprecipitated against wild-type Rab8 in assay [2] worked out at 5 fold.

As for “endogenous Rab8 of NIH 3T3 cells (from UniProt P55258 1-207) (natural protein)”, in assay [3], the FE^CFP after YFP photo-bleaching (AB-FRET of the reporter CFP-RBD-YFP) around the cilium base, G0-phase NIH 3T3 RNAi control cells turned out to be 9.3%. For the same substance, in assay [4], the FE^CFP after YFP photo-bleaching (AB-FRET of the reporter CFP-RBD-YFP) at the basal body, G0-phase NIH 3T3 cells treated with the GSK3 inhibitor BIO was determined as 3.3%; the FE^CFP after YFP photo-bleaching (AB-FRET of the reporter CFP-RBD-YFP) at the basal body, G0-phase NIH 3T3 cells treated with the GSK3 inhibitor CHIR99021 was found to be 2.6%; the FE^CFP after YFP photo-bleaching (AB-FRET of the reporter CFP-RBD-YFP) at the basal body, G0-phase NIH 3T3 cells, untreated control was found to be 4.8%.
